Assay results reported in patent publication US20240317834A1, “COMPOSITIONS AND METHODS FOR NEUROLOGICAL DISEASES” (CODA BIOTHERAPEUTICS, INC., priority 2020, published 2024).
Changes are numbered by the printed parent chain. In names and notes the source's numbering stands.

Legend:
Format in all cases: cell-based
Lenti-X 293T cells = test: YFP fluorescence quenching anion reporter plate reader assay of engineered receptors stimulated with acetylcholine or a non-native ligand; conditions: for percent quench of YFP fluorescence, 10 uM ach: acetylcholine 10 uM; for percent quench of YFP fluorescence, 100 uM ach: acetylcholine 100 uM; for percent quench of YFP fluorescence, 1 mM ach: acetylcholine 1 mM; for percent quench of YFP fluorescence, 3 mM ach: acetylcholine 3 mM
Outline: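 YFP quench was followed for about 1 min 43 s after ligand delivered in iodide-based ECS, pH 7.2. Values are end-of-read fluorescence (last 10 s) divided by the pre-ligand baseline (15 s). Cells were LX293T, transfected with receptor DNA a day before the assay.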

HEK293T cells = test: High throughput electrophysiology (IonFlux automated patch clamp), EC50 of engineered receptors to ligands
Description: To confirm the EC50s determined by plate reader as well as develop a better understanding of maximum current flow, the engineered receptors were subjected to high throughput electrophysiology system, as described below. For HEK293T studies, cDNAs encoding ion channels were cloned into pcDNA3.1 using standard recombination techniques. HEK293T cells from Clontech (Lenti-X™ 293T Cell Line) were cultured in DMEM supplemented with 10% FBS and 1% Pen/Strep to 40-50% confluence using standard cell culture protocols, transfected with ion channel plasmids at a concentration of 18 μg per 15 cm dish using Fugene 6, and grown for an additional 24 hours. Cells were then assayed on an electrophysiological system (IonFluxHT and/or Mercury, Fluxion Biosciences) in which dose-response relationships may be assessed through a microfluidics-based platform for establishing whole cell configurations. Ensemble plates were primed with extracellular buffer (140 mM NaCl, 5 mM KCl, 2 mM CaCl2), 1 mM MgCl2, 10 mM HEPES, and 10 mM glucose, pH 7.2 with NaOH, mOsm 310), intracellular buffer (145 mM CsCl, 2 mM CaCl2), 2 mM MgCl2, 10 mM HEPES, and 10 mM EGTA, pH 7.2 with CsOH, mOsm 305), as adapted from Lynagh and Lynch, and test compounds (stocks prepared fresh) diluted in extracellular buffer. Cells were then released from the plate with Accutase, centrifuged, resuspended in extracellular buffer, and loaded into Ensemble plates. Cells were then subjected to a standard protocol for priming, trapping, breaking, and establishing whole cell configuration, with cells held at −60 mV throughout the recording. After recording baseline, progressive doses of test compounds were applied using the IonFlux software to assess dose response relationships. Data were then analyzed off-line using custom Python scripts to convert data to .csv format, re-plot traces, and apply QC measurements to reject unstable recordings (i.e. thresholding based on access resistance and/or standard deviation in baseline, as well as artifact rejection). Peak currents were then calculated, and population data were fit using a 4-parameter logistic equation as described by the Hill Equation. Currents were measured on an automated patch clamp system (Fluxion Biosciences) following 1 second addition of drug and the EC50 values calculated are tabulated below in Table 22 below and Table 21 above (in Example 2).

rat hippocampal neurons [1] = test: Spontaneous firing rate of rat hippocampal neurons (current clamp)
Description: For manual patch clamp experiments, Cells plated on coverslips were visualized at 10× and 40× on an inverted fluorescence microscope (Olympus). Recordings were made with an Axopatch 200B amplifier and Digidata 1550B (Molecular Devices) at RT using 3-6 MOhm glass patch electrodes (Sutter, BF150-86-10). Unless otherwise stated, recordings were made in extracellular solution (ECS) containing: 140 mM sodium chloride, 4 mM potassium chloride, 1 mM magnesium chloride, 2 mM calcium chloride, 10 mM HEPES, and 10 mM D-(+)-glucose (pH=7.3 with sodium hydroxide, osmolarity=305−315 mOsm). An 8-line reservoir (AutoMate Scientific) in combination with an 8-channel zero-dead-volume perfusion pencil (AutoMate Scientific) was used for perfusion. Data was acquired using pClamp software (Molecular Devices). Traces were either analyzed in Clampfit (Molecular Devices) or using custom Python code. […]
Spontaneous activity was recorded in gapfree mode, in the presence and absence of a compound. […] For both methods, minimum height, average height, maximum height were measured and frequency was calculated as the number of events in the epoch divided by the length of time of the epoch. For Clampfit, the resting membrane potential was measured at 3 points between events and averaged for each epoch. […] For both methods, membrane potential was corrected for the calculated liquid junction potential. […]

rat hippocampal neurons [2] = test: Evoked rheobase shift in rat hippocampal neurons (current clamp)
Description: For manual patch clamp experiments, Cells plated on coverslips were visualized at 10× and 40× on an inverted fluorescence microscope (Olympus). Recordings were made with an Axopatch 200B amplifier and Digidata 1550B (Molecular Devices) at RT using 3-6 MOhm glass patch electrodes (Sutter, BF150-86-10). Unless otherwise stated, recordings were made in extracellular solution (ECS) containing: 140 mM sodium chloride, 4 mM potassium chloride, 1 mM magnesium chloride, 2 mM calcium chloride, 10 mM HEPES, and 10 mM D-(+)-glucose (pH=7.3 with sodium hydroxide, osmolarity=305−315 mOsm). An 8-line reservoir (AutoMate Scientific) in combination with an 8-channel zero-dead-volume perfusion pencil (AutoMate Scientific) was used for perfusion. Data was acquired using pClamp software (Molecular Devices). Traces were either analyzed in Clampfit (Molecular Devices) or using custom Python code. Plotting and statistics were performed in GraphPad Prism.
No holding current was applied to the membrane for cells included in the final datasets. Data acquisition settings and analysis methods were the same as for the DRG rheobase experiments.

B1: CODA536: engineered chimeric LGIC receptor, L131D, S172D in SEQ ID NO: 33 (protein)
chain: MRCSPGGVWLALAASLLHVSLQGEFQRKLYKELVKNYNPLERPVANDSQPLTVYFSLSLLQIMDVDEKNQVLTTNIWLQMSWTDHYLQWNVSEYPGVKTVRFPDGQIWKPDILLYNSADERFDATFHTNVDVNSSGHCQYLPPGIFKSSCPMDLKNFPMDVQTCKLKFGSWDYGGWSLDLQMQEADISGYIPNGEWDLVGIPGKRSERFYECCKEPYPDVTFTVTMRRRMGYYLIQMYIPSLLIVILSWISFWINMDAAPARVGLGITTVLTMTTQSSGSRASLPKVSYVKAIDIWMAVCLLFVFSALLEYAAVNFVSRQHKELLRFRRKRRHHKSPMLNLFQEDEAGEGRFNFSAYGMGPACLQAKDGISVKGANNSNTTNPPPAPSKSPEEMRKLFIQRAKKIDKISRIGFPMAFLIFNMFYWIIYKIVRREDVHNQ
modifications: synthetic sequence of chimeric LGIC
Lenti-X 293T cells; 1 nM brd
  YFP fluorescence quenching using TC-5619/Bradanicline: −1.24%
Lenti-X 293T cells; 3 nM brd
  YFP fluorescence quenching using TC-5619/Bradanicline: 0.25%
Lenti-X 293T cells; 10 nM brd
  YFP fluorescence quenching using TC-5619/Bradanicline: −2.57%
Lenti-X 293T cells; 30 nM brd
  YFP fluorescence quenching using TC-5619/Bradanicline: 0.78%
Lenti-X 293T cells; 30 nM fac
  YFP fluorescence quenching using Facinicline: 24.15
Lenti-X 293T cells; 50 nM abt
  YFP fluorescence quenching using ABT-126: −3.19%
Lenti-X 293T cells; 100 nM CNL002
  YFP fluorescence quenching using CNL002: 71.72%
Lenti-X 293T cells; 100 nM abt
  YFP fluorescence quenching using ABT-126: 7.58%
Lenti-X 293T cells; 100 nM azd0328
  YFP fluorescence quenching using AZD-0328: 51.44%
Lenti-X 293T cells; 100 nM brd
  YFP fluorescence quenching using TC-5619/Bradanicline: 4.51%
Lenti-X 293T cells; 300 nM abt
  YFP fluorescence quenching using ABT-126: −1.65%
Lenti-X 293T cells; 300 nM azd0328
  YFP fluorescence quenching using AZD-0328: 77.12%
Lenti-X 293T cells; 300 nM brd
  YFP fluorescence quenching using TC-5619/Bradanicline: 30.97%
Lenti-X 293T cells; 300 nM fac
  YFP fluorescence quenching using Facinicline: 80.17
Lenti-X 293T cells; 1 uM CNL002
  YFP fluorescence quenching using CNL002: 77.26%
Lenti-X 293T cells; 1 uM abt
  YFP fluorescence quenching using ABT-126: 31.29%
Lenti-X 293T cells; 1 uM brd
  YFP fluorescence quenching using TC-5619/Bradanicline: 44.41%
Lenti-X 293T cells; 1 uM tc6987
  YFP fluorescence quenching using TC-6987: −18.24
Lenti-X 293T cells; 10 uM fac
  YFP fluorescence quenching using Facinicline: 81.34
Lenti-X 293T cells; 10 uM tc6987
  YFP fluorescence quenching using TC-6987: −23.06
Lenti-X 293T cells; 30 uM CNL002
  YFP fluorescence quenching using CNL002: 77.5%
Lenti-X 293T cells; 30 uM azd0328
  YFP fluorescence quenching using AZD-0328: 79.26%
Lenti-X 293T cells; 30 uM fac
  YFP fluorescence quenching using Facinicline: 79.9
Lenti-X 293T cells; 500 uM tc6987
  YFP fluorescence quenching using TC-6987: −19.3
Lenti-X 293T cells; TC-6683 30 nM
  percent quench of YFP fluorescence, 30 nM TC-6683: −22.285%
Lenti-X 293T cells; TC-6683 300 nM
  percent quench of YFP fluorescence, 300 nM TC-6683: −23.926%
Lenti-X 293T cells; TC-6683 3 uM
  percent quench of YFP fluorescence, 3 uM TC-6683: −20.514%
Lenti-X 293T cells; TC-6683 30 uM
  percent quench of YFP fluorescence, 30 uM TC-6683: −3.078%
Lenti-X 293T cells; TC-6683 100 uM
  percent quench of YFP fluorescence, 100 uM TC-6683: 7.37%
Lenti-X 293T cells
  percent quench of YFP fluorescence, 10 uM ach: −12.91%
  percent quench of YFP fluorescence, 100 uM ach: −20.88%
  percent quench of YFP fluorescence, 1 mM ach: 79.85%
  percent quench of YFP fluorescence, 3 mM ach: 79.98%
HEK293T cells; ligand AZD-0328
  fold increased potency towards AZD-0328 compared with wild type receptor: at least 10 fold
HEK293T cells; ligand RG-3487
  fold increased potency towards RG-3487 compared with wild type receptor: at least 10 fold

B2: CODA1140: engineered chimeric LGIC receptor, R101F, L131N, S172D in SEQ ID NO: 33 (protein)
chain: B1 chain with R101F, D131N
modifications: synthetic sequence of chimeric LGIC
Rat hippocampal neurons [1]; +CNL002 @ EC90
  Firing Rate Spontaneous; Rat Hippocampal Neurons, +CNL002 @ EC90: 0.71 ± 0.29 Hz
Rat hippocampal neurons [1]; Baseline, no ligand
  Firing Rate Spontaneous; Rat Hippocampal Neurons, Baseline: 3.29 ± 0.75 Hz
Lenti-X 293T cells; 1 nM CNL001, first column
  YFP fluorescence quenching using CNL001: 52.592%
Lenti-X 293T cells; 1 nM CNL001, second column
  YFP fluorescence quenching using CNL001: 61.248%
Lenti-X 293T cells; 1 nM CNL002
  YFP fluorescence quenching using CNL002: 0.337%
Lenti-X 293T cells; 3 nM var, first column
  YFP fluorescence quenching using Varenicline: −6.169
Lenti-X 293T cells; 3 nM var, second column
  YFP fluorescence quenching using Varenicline: −10.445
Lenti-X 293T cells; 10 nM CNL001, first column
  YFP fluorescence quenching using CNL001: 71.678%
Lenti-X 293T cells; 10 nM CNL001, second column
  YFP fluorescence quenching using CNL001: 71.881%
Lenti-X 293T cells; 10 nM CNL002
  YFP fluorescence quenching using CNL002: 59.894%
Lenti-X 293T cells; 30 nM var, first column
  YFP fluorescence quenching using Varenicline: −9.679
Lenti-X 293T cells; 30 nM var, second column
  YFP fluorescence quenching using Varenicline: −10.878
Lenti-X 293T cells; 50 nM CNL001, first column
  YFP fluorescence quenching using CNL001: 73.807%
Lenti-X 293T cells; 50 nM CNL001, second column
  YFP fluorescence quenching using CNL001: 75.649%
Lenti-X 293T cells; 50 nM CNL002
  YFP fluorescence quenching using CNL002: 76.501%
Lenti-X 293T cells; 50 nM abt
  YFP fluorescence quenching using ABT-126: −7.87%
Lenti-X 293T cells; 100 nM CNL001, first column
  YFP fluorescence quenching using CNL001: 76%
Lenti-X 293T cells; 100 nM CNL001, second column
  YFP fluorescence quenching using CNL001: 76.329%
Lenti-X 293T cells; 100 nM CNL002
  YFP fluorescence quenching using CNL002: 79.03%
Lenti-X 293T cells; 100 nM abt
  YFP fluorescence quenching using ABT-126: −5.35%
Lenti-X 293T cells; 300 nM abt
  YFP fluorescence quenching using ABT-126: −3.67%
Lenti-X 293T cells; 300 nM var, first column
  YFP fluorescence quenching using Varenicline: −9.572
Lenti-X 293T cells; 300 nM var, second column
  YFP fluorescence quenching using Varenicline: −8.873
Lenti-X 293T cells; 500 nM var, first column
  YFP fluorescence quenching using Varenicline: −14.656
Lenti-X 293T cells; 500 nM var, second column
  YFP fluorescence quenching using Varenicline: −11.304
Lenti-X 293T cells; 1 uM CNL001, first column
  YFP fluorescence quenching using CNL001: 76.168%
Lenti-X 293T cells; 1 uM CNL001, second column
  YFP fluorescence quenching using CNL001: 74.076%
Lenti-X 293T cells; 1 uM CNL002
  YFP fluorescence quenching using CNL002: 82.85%
Lenti-X 293T cells; 1 uM abt
  YFP fluorescence quenching using ABT-126: 3.64%
Lenti-X 293T cells; 1 uM var, first column
  YFP fluorescence quenching using Varenicline: −13.996
Lenti-X 293T cells; 1 uM var, second column
  YFP fluorescence quenching using Varenicline: −16.128
Lenti-X 293T cells; 10 uM abt
  YFP fluorescence quenching using ABT-126: 5.91%
Lenti-X 293T cells
  percent quench of YFP fluorescence, 10 uM ach: −20.07%
  percent quench of YFP fluorescence, 100 uM ach: −25.8%
  percent quench of YFP fluorescence, 1 mM ach: 9.02%
  percent quench of YFP fluorescence, 3 mM ach: 45%
Lenti-X 293T cells; acetylcholine 30 uM
  percent quench of YFP fluorescence, 30 uM ach: −16.92%
Lenti-X 293T cells; acetylcholine 300 uM
  percent quench of YFP fluorescence, 300 uM ach: −11.21%
Rat hippocampal neurons [2]; +CNL002 @ EC90
  Rheobase Shift Evoked; Rat Hippocampal Neurons, +CNL002 @ EC90: 296.9 ± 72.65 pA
Rat hippocampal neurons [2]; Baseline, no ligand
  Rheobase Shift Evoked; Rat Hippocampal Neurons, Baseline: 40.63 ± 10.50 pA
